Data: patent US7829301B2, “Screening assays for binding antagonists of the AMD-associated variant of factor H (H384)” (The University of Manchester, priority 2006, dated 2010)
Where a chain is given by its changes, count along the chain named.

B1: FHCCP6-8(H384): recombinant protein of Factor H CCPs 6-8, H384 allotype, with N-terminal non-authentic glycine (SEQ ID NO: 1) (protein, listed as Homo sapiens)
chain: MGTLKPCDYPDIKHGGLYHENMRRPYFPVAVGKYYSYYCDEHFETPSGSYWDHIHCTQDGWSPAVPCLRKCYFPYLENGYNQNHGRKFVQGKSIDVACHPGYALPKAQTTVTCMENGWSPTPRCIRVKTCSKSSIDIENGFISESQYTYALKEKAKYQCKLGYVTADGETSGSITCGKDGWSAQPTCI
modifications: VARIANT (1)...(188) Protein sequence of the FHCCP6-8 (H384) construct
B2: FHCCP6-8(Y384): recombinant Factor H CCPs 6-8, Y384 variant obtained by site-directed mutagenesis (SEQ ID NO: 3) (protein, listed as Homo sapiens)
chain: B1 chain with H84Y
modifications: VARIANT (1)...(188) FHCCP6-8 (Y384 allotype of mature Factor H)

Experiments:
[1] = Microtitre plate assay: biotinylated proteins binding to immobilized heparin oligosaccharides of defined length
From the text: FIG. 10: Comparisons of the interactions of FHCCP6-8(H384) and the corresponding Y384 variant with heparin oligomers of different lengths. The binding of biotinylated-FHCCP6-8(H384) (black bars) or biotinylated-FHCCP6-8(Y384) (grey bars) to heparin oligosaccharides (dp4 to dp18) immobilized on microtitre plates plasma polymerized with allylamine. All values are plotted as mean absorbance values (n=8)±S.E.
(§1) The heparin/HS/DS-binding activities of the FHCCP6-8(H384) and FHCCP6-8(Y384) variants (using biotinylated-FHCCP6-8 constructs), and in some cases full-length Factor H (detected with an antibody), were compared using an assay where the glycosaminoglycans (GAGs) were immobilized on allylamine-coated EpranEx plates (Mahoney et al (2004) Anal. Biochem. 330, 123-129), kindly supplied by Plasso Technology Ltd., Sheffield, UK. Previously, we have shown that heparin/HS can bind non-covalently to surfaces plasma polymerized with allylamine in such a way that these GAGs can still associate with a wide-range of proteins (Mahoney et al. (2005) J. Biol. Chem. 280, 27044-27055; Mahoney et al. (2004) ibid).
(§2) In the case of the biotinylated FHCCP6-8(H384) and FHCCP6-8(Y384) constructs, bound material was detected by adding 200 μl/well of a 1:10,000 dilution of ExtrAvidin alkaline phosphatase (Sigma, Cat. No. E-2636) for 30 minutes. […]

[2] = Microtitre plate assay: biotinylated proteins binding to immobilized dermatan sulphate; parameters: species or system porcine; conditions: biotinylated proteins 0-10 pmol/well
From the text: as §1
(§3) The following GAG preparations were analyzed: unfractionated heparins corresponding to the 2nd, 4th and 5th International Standards (denoted here as 2IS, 4IS and 5IS, respectively (Mulloy et al. (2000) Thromb. Haemost. 52, 148-153)); enoxaparin, dalteparin and LMr heparin from Sigma (Cat. No. H3400); selectively desulfated heparins prepared from 2IS heparin as described in Mulloy et al. (1994) Carbohydr. […]
as §2

[3] = Microtitre plate assay: binding to HSI and HSII immobilized on EpranEx plate; parameters: species or system pig; conditions: HS immobilized on allylamine-coated EpranEx plate
From the text: as §1, §3, §2

[4] = Microtitre plate assay: biotinylated proteins binding to unfractionated heparin immobilized on EpranEx plates
Description: The heparin/HS/DS-binding activities of the FHCCP6-8(H384) and FHCCP6-8(Y384) variants (using biotinylated-FHCCP6-8 constructs), and in some cases full-length Factor H (detected with an antibody), were compared using an assay where the glycosaminoglycans (GAGs) were immobilized on allylamine-coated EpranEx plates (Mahoney et al (2004) Anal. Biochem. 330, 123-129), kindly supplied by Plasso Technology Ltd., Sheffield, UK. […]
as §3, §2
(§4) In these plate assays all data points were determined in quadruplicate from each of two independent experiments.

[5] = Microtitre plate assay: biotinylated proteins binding to selectively desulphated 2IS heparin
From the text: as §1, §3
In the case of the biotinylated FHCCP6-8(H384) and FHCCP6-8(Y384) constructs, bound material was detected by adding 200 μl/well of a 1:10,000 dilution of ExtrAvidin alkaline phosphatase (Sigma, Cat. No. E-2636) for 30 minutes. […] For the full-length protein, the level of binding (to 4IS, HSI and HSII) was determined by incubation of the plates for 30 min with MRC OX23 (a monoclonal antibody against factor H (Sim et al. (1983) Biosci. Rep. 3, 1119-1131; 1 μg/well) followed by a 1:1000 dilution of alkaline phosphatase-conjugated goat anti-mouse IgG (Sigma, Cat. No. A-3438) for another 30 minutes. The plates were then developed for 10 min as described above. The absorbance values at 405 nm were determined and corrected against blank wells (i.e., those that contained no GAGs).

[6] = Biotinylated bovine HS plate assay; type: binding; conditions: proteins immobilised at 1 μg/well
Description: The HS binding properties of FHCCP6-8(H384), FHCCP6-8(Y384) and full length Factor H were further tested using biotinylated bovine kidney heparan sulphate (Sigma) where the proteins were coated onto the wells of a Maxisorp microtitre plate (NUNC) at 1 μg/well in PBS (Oxoid; 137 mM NaCl, 2.6 mM KCl, 8.2 mM Na2HPO4, 1.5 mM KH2PO4, pH 7.3) overnight at room temperature. Link_TSG6 (denoted as L-TSG-6 in FIG. 9), a known HS-binding domain (see Mahoney et al. (2005) J. Biol. Chem. 280, 27044-27055) was immobilised at 1 μg/well as a positive control. Plates were blocked the next morning with 1% (w/v) BSA (Sigma, Cat. No. A-4503) in standard assay buffer (20 mM HEPES, 130 mM NaCl, 0.05% (v/v) Tween-20, pH 7.3) for 90 minutes at 37° C. The standard assay buffer was used for all subsequent incubations, dilutions and washes at room temperature. The biotinylated HS was incubated at various concentrations with the immobilised proteins for 4 hours. Bound material was detected by adding 200 μl/well of a 1:10,000 dilution of ExtrAvidin alkaline phosphatase (Sigma, Cat. No. E-2636) for 30 minutes. Plates were then developed with 200 μl/well of 1 mg/ml disodium p-nitrophenylphosphate (pNPP; Sigma) in 0.05 M Tris-HCl, 0.1 M NaCl, pH9.3, and developed for 40 minutes; the absorbance at 405 nm was measured and the signal from blank wells subtracted.

[7] = Microtitre plate assay: biotinylated-4IS heparin binding to immobilized proteins
Description: Alternatively, the unlabelled FHCCP6-8(H384), FHCCP6-8(Y384) and mutant proteins (i.e., K370A, R386A, K387A in the context of the FHCCP6-8(H384) construct) were adsorbed at 1 μg/ml in PBS onto microtitre plates (Nunc Maxisorb, Kastrup, Denmark) and their ligand-binding activities at pH 7.3 were determined using biotinylated-4IS heparin essentially as described in Mahoney et al. (2005) ibid. Plate assays were carried out in 20 mM HEPES, 130 mM NaCl, 0.05% (v/v) Tween-20, pH 7.3 and the level of bound heparin determined as described above for the biotinylated proteins.
as §4

Molecule | binding to heparin oligosaccharides relative to the other variant ([1]; 4- to 18-mers) | interaction with DS [2] | binding to HS preparations HSI and HSII [3] | binding to immobilized unfractionated heparins compared to FHCCP6-8(Y384) ([4]; 2IS, 4IS and 5IS) | effect of removal of 2-O- or N-sulfate on binding ([5]; 2-O-deS or N-deS vs unmodified 2IS) | interaction with biotinylated bovine kidney HS [6] | oligosaccharide length giving maximal binding [1] [sugars] | binding to 4IS heparin relative to FHCCP6-8(H384) ([4]; heparin bound to allylamine-coated surface, biotinylated proteins) | binding to 4IS heparin relative to FHCCP6-8(H384) [7] | binding to 6-O-deS and N-deS/re-N-Ac preparations versus parental 2IS [5] | effect of removal of 2-O-, 2,6-O- or N-sulfates on binding ([5]; vs unmodified 2IS)
B1 | bound better | interact with DS, albeit to a lesser degree than heparin | lack of activity | more of the FHCCP6-8(H384) protein bound | large reduction | interact |  |  |  |  | 
B2 |  | interact with DS, albeit to a lesser degree than heparin | lack of activity |  |  | interact | ~12 | bind less well | bind less well | indistinguishable | small effect
